Data as given in US20090130105A1 (Biogen, published 2009).

Key:
[1] = target: T1, human IGF-1R(1-902)-His10 (human, UniProt P08069 31-932); experiment: SPR competition (Biacore 3000): soluble antibody titrated into 40 nM hIGF-1R-His, mixture injected over immobilized M13-C06
T1 construct: Bought from R&D Systems (305-GR-050); also called hIGF-1R-His10; hIGF-1R-His
Protocol: Regeneration was achieved by three 10 μL injections of 0.1 M glycine, pH 2.0. 100% hIGF-1R-His binding to each antibody was determined by the signal above the baseline under mass transport-limiting conditions 60 seconds into the injection.

human IGF-1R(1-903)-Fc [2] = target: T2, human IGF-1R(1-903)-Fc (human, UniProt P08069 31-933); experiment: IGF-1 blocking ELISA at 20 nM IGF-1 His on biotinylated hIGF-1R-Fc
T2 construct: also called hIGF-1R-Fc; SDWT; not shown: human IgG1 Fc, C-terminal tag
T2 sequence (P08069 31-933): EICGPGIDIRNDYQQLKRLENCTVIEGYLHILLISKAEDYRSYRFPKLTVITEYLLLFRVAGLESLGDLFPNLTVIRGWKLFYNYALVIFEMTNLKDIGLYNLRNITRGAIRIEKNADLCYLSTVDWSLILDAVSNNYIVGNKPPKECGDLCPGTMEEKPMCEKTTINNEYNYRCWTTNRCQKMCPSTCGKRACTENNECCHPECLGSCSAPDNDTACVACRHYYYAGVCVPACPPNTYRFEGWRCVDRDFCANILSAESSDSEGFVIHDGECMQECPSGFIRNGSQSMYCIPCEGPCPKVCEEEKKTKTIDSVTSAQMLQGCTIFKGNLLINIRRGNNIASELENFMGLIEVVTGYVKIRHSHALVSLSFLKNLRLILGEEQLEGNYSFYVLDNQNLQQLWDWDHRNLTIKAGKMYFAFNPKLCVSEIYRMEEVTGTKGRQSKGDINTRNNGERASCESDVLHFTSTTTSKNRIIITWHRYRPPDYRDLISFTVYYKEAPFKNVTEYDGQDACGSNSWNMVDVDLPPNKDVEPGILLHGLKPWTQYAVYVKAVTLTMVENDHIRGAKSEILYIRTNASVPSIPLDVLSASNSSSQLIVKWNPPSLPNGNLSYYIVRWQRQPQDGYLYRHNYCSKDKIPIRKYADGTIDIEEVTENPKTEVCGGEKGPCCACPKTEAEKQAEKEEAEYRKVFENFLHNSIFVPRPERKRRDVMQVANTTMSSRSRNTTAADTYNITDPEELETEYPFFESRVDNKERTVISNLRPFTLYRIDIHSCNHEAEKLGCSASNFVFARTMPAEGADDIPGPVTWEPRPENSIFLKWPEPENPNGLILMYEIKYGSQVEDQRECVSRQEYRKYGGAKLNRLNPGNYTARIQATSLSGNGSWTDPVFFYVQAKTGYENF
Protocol: (§1) The dilutions were added to the plates in duplicate at 100 μL/well and the plates were incubated at RT for 1 hour. The plates were then washed four times with 200 μL/well PBST. An HRP-conjugated anti-Histag antibody (Penta-His HRP Conjugate, QIAGEN, Cat. No. 1014992) was diluted 1:1000 in PBST and added to plates at 100 μL/well, and the plates were incubated at RT for one hour. The plates were then washed four times with 200 μL/well PBST. SureBlue Reserve TMB Microwell Peroxidase Substrate (KPL, Cat. No. 53-00-01) was added to plates at 100 μL/well followed by 1% phosphoric acid at 100 μL/well once the desired reaction was observed. The absorbance of each well was determined at 450 nm, and the results were normalized and plotted against the log of antibody concentration.
(§2) Ligand Blocking Properties.

human IGF-1R(1-903)-Fc [3] = target: T2, human IGF-1R(1-903)-Fc; experiment: ELISA, blocking of 320 nM IGF-1 His on biotinylated hIGF-1R-Fc
Protocol: as §1, with “hIGF-1R-Fc was biotinylated using EZ-Link Sulfo-NHS-LC-Biotin according to the protocol provided by the manufacturer (Pierce Cat. No. 21335). Biotinylated human IGF-1R Fc (NB12453-9) at 5 μg/ml was added to the wells of SigmaScreen streptavidin-coated 96-well plates (Sigma, Cat. No. M5432-5EA) at 100 μL/well and incubated overnight at 2-8° C. The plates were then washed four times with 200 μL/well PBST. […] The dilutions” for “The dilutions”

[4] = target: T3, human IGF-1R on H322M non-small cell lung cancer cells (human, UniProt P08069 31-1367); experiment: flow cytometry on H322M cells, anti-human Fc PE secondary (FIG. 55B)
T3 construct: Endogenous receptor of the tumor cell line; also called cell surface IGF-1R
T3 sequence (P08069 31-1367, stated change not applied): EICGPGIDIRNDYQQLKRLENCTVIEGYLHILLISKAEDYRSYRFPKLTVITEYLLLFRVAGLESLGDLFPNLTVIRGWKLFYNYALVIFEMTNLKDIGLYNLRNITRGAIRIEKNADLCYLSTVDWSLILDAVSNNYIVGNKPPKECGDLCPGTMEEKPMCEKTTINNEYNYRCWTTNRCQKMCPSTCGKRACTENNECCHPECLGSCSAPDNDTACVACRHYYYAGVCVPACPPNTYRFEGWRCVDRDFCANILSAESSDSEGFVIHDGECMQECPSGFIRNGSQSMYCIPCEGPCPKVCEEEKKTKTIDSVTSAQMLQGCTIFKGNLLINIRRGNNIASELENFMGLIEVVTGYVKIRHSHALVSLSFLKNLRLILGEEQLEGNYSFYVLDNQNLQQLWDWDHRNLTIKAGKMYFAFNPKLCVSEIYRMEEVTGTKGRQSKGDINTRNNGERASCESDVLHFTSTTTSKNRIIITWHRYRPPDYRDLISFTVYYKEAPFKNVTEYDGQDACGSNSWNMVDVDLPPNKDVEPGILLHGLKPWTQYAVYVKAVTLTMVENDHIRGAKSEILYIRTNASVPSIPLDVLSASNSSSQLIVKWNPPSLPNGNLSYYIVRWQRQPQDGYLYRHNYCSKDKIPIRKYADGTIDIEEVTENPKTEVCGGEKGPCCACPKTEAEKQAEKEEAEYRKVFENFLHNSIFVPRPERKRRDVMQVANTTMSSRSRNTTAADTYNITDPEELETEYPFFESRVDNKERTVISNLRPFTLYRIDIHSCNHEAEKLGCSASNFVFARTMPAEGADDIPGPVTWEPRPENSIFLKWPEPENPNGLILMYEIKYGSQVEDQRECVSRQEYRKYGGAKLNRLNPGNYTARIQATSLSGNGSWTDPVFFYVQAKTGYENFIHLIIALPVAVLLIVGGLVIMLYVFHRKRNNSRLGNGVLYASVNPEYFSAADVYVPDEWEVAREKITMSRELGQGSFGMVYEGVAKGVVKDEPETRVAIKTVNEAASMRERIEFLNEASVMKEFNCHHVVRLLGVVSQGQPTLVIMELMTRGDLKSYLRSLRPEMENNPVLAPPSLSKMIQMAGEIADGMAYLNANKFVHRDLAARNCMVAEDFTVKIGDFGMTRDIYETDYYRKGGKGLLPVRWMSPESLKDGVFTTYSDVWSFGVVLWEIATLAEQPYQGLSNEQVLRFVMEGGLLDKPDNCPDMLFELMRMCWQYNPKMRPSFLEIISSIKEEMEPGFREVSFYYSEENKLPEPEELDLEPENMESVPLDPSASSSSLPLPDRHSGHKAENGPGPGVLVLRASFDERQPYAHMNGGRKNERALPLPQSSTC
Protocol: Cell lines were routinely cultured no greater than 20 passages. Flow cyotometric analysis of antibody binding to human cancer cells. Cells were lifted with cell dissociation buffer (Gibco catalog #13151-014), counted, washed and adjusted to 5×10⁶ cells/ml. Cells (2.5×10⁵; 50 uL) were added to each well of a 96-well round bottom plate (Costar #3799). Purified antibodies were tested at a starting concentration of 300 nM with serial half-log dilutions in FACS buffer. FACS buffer used throughout the assay was PBS (without Ca++/Mg++) containing 5% FBS. Samples were incubated on ice for 30 minutes, washed 3× with 200 uL FACS buffer and centrifuged at 1200 rpm for 3 minutes at 4° C. C2B8 (rituximab, IgG1) was used as a negative control. […] Samples were incubated for an additional 30 minutes on ice, shielded from light. Cells were washed as described above and resuspended in 100 μl FACS buffer containing propidium iodide (PI) for dead cell exclusion (BD Pharmingen, catalog# 51-66211E or 556463; use at 1:500 final in FACS buffer). Samples were run in triplicate using the FACSArray flow cytometer (Becton Dickinson) with 5000 live events collected per sample. Data analysis was performed using the GraphPad Prism version 5.0 software (GraphPad Software Inc., 11452 El Camino Real #215, San Diego, Calif. 92130). Results. […]

sIGF-1R(1-903) = target: T4, sIGF-1R(1-903) (human, UniProt P08069 31-933); experiment: equilibrium solution-phase SPR, free sIGF-1R(1-903) read on C06 surface
T4 construct: also called soluble IGF-1R ectodomain
T4 sequence (P08069 31-933): as the sequence (P08069 31-933) above

[5] = target: T3, human IGF-1R on H322M non-small cell …; experiment: cell-based or functional assay
human IGF-1R(1-903)-Fc [6] = target: T2, human IGF-1R(1-903)-Fc; experiment: IGF-1 blocking ELISA at 1280 nM IGF-1 His on biotinylated hIGF-1R-Fc
Protocol: as §1, §2

[7] = target: T5, hIGF-1R-Fc mutant SD015 (H464E) (human, UniProt P08069 31-933); experiment: SPR (Biacore 3000): SD015 captured on immobilized M13-C06 surface, M13-C06 (Fab according to paragraph 695) injected at 0, 1, 3, 10 nM
T5 construct: not shown: human IgG1 Fc, C-terminal tag
T5 sequence (P08069 31-933 H494E): as the sequence (P08069 31-933) above, with H464E counted along it
Protocol: After, completion of the receptor-Fc loading step, flow rates were elevated to 5 μl/min. […] At the end of each sensorgram, the flow rate was elevated to 30 μl/min and the chip surface was regenerated by 2×10 μL injections of 0.1 M glycine, pH 2.

T1 sequence (P08069 other isoform, or with tags, fused parts or gaps): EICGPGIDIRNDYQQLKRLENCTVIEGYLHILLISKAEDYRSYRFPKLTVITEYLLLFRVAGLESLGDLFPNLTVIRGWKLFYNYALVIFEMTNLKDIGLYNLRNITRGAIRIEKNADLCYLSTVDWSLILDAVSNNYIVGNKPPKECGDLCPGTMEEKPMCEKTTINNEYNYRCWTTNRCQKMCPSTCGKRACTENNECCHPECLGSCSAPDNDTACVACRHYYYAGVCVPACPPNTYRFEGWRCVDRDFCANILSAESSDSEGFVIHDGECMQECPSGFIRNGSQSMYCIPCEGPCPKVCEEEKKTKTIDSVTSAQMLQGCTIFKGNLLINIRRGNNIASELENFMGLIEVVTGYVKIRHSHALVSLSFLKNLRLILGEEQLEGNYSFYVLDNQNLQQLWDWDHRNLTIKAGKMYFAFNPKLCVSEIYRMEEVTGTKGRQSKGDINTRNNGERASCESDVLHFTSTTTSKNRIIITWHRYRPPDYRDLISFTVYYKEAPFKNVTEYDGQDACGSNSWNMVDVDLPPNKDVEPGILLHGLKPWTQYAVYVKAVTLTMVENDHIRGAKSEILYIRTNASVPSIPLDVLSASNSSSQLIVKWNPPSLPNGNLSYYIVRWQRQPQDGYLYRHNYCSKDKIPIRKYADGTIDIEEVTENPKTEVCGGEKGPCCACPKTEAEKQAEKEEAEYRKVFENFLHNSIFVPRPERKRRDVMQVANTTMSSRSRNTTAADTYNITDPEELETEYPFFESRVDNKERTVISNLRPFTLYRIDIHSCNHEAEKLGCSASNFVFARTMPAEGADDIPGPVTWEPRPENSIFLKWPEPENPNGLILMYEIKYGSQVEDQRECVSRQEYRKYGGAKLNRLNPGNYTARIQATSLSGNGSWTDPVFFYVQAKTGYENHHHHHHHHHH

B1: M13-C06 antibody (antibody, V domains shown)
VH: EVQLLESGGGLVQPGGSLRLSCAASGFTFSIYRMQWVRQAPGKGLEWVSGISPSGGTTWYADSVKGRFTISRDNSKNTLYLQMNSLRAEDTAVYYCARWSGGSGYAFDIWGQGTMVTVSS
VL: DIQMTQSPLSLSASVGDRVTITCQASRDIRNYLNWYQQKPGKAPKLLIYDASSLQTGVPSRFGGSGSGTDFSFTIGSLQPEDIATYYCQQFDSLPHTFGQGTKLEIK
notes: Fully human full-length antibody (ATCC PTA-7444); also called M13.C06.G4.P.agly; M13-C06.G4P.agly
IC50 (read off the curve) [1]: ~30 nM
IC50 (read off the curve) (human IGF-1R(1-903)-Fc [2]): ~1 nM
IC50 (human IGF-1R(1-903)-Fc [3]): 1.3 nM
EC50 [4]: 0.25 nM
Kd (sIGF-1R(1-903)): 0.1 nM
n (#C06 specific binding sites) (sIGF-1R(1-903)): 1
reduction of surface IGF-1R after 24 hours (FACS, H322M cells) [5]: > 70%
IC50 (read off the curve) (human IGF-1R(1-903)-Fc [6]): ~1 nM

B2: M13-C06 Fab (Fab, V domains shown)
VH: EVQLLESGGGLVQPGGSLRLSCAASGFTFSIYRMQWVRQAPGKGLEWVSGISPSGGTTWYADSVKGRFTISRDNSKNTLYLQMNSLRAEDTAVYYCARWSGGSGYAFDIWGQGTMVTVSS
VL: DIQMTQSPLSLSASVGDRVTITCQASRDIRNYLNWYQQKPGKAPKLLIYDASSLQTGVPSRFGGSGSGTDFSFTIGSLQPEDIATYYCQQFDSLPHTFGQGTKLEIK
notes: Fab made by enzymatic digestion of the IgG
binding result [7]: no binding (tested: 10 nM)
Kd (sIGF-1R(1-903)): 0.6 nM
n (#C06 specific binding sites) (sIGF-1R(1-903)): 2
